For experiment [1], the target named is T1, peptide derived of extracellular domain three (human, coupled to a carrier protein (BSA or transferrin, not stated which)).
T1 construct: also called ECL3 peptide
T1 peptide: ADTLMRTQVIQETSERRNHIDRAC
Briefly: ELISA, Fab. As to the method:
(§1) 384-well Maxisorp plates (Nunc; Cat. #460518) were coated with respective CXCR2 and control peptides coupled either to BSA or Transferrin (TRF) at 1-5 μg/mL and incubated o/n at 4° C. […] After three washing steps, antibodies were added at 5-10 μg/mL and titrated in some experiments. Antibodies were incubated 1 h at room temperature and plates were subsequently washed. Binding of anti-CXCR2 antibodies was detected by using alkaline phosphatase-conjugated anti-human IgG, (Dianova, Cat #109-055-097). AttoPhos fluorescence substrate (Roche, Cat #1484281) was added according to instructions of the manufacturer and fluorescence was measured (excitation at 430 nm, emission at 535 nm) using a microplate reader.
(§2) The Fabs were further tested including affinity determination via BiaCore, EC₅₀ determination in ELISA and FACS, as well as the evaluation of cellular cytotoxicity via secondary immunotoxin (Saporin) upon antibody internalization (Fab-ZAP). Respective experimental settings as outlined in Example 3 were used.

In experiment [2] the target is T2, hu_CXCR2_N-term (1-17)-BSA (human; bovine, coupled to carrier protein BSA; C-terminal cysteine introduced to enable coupling).
T2 construct: Synthetic linear peptide chemically coupled to the carrier; also called CXCR2_aa1-17_BSA; CXCR2 aa1-17 BSA
T2 sequence (P02769 25-607 limits assumed): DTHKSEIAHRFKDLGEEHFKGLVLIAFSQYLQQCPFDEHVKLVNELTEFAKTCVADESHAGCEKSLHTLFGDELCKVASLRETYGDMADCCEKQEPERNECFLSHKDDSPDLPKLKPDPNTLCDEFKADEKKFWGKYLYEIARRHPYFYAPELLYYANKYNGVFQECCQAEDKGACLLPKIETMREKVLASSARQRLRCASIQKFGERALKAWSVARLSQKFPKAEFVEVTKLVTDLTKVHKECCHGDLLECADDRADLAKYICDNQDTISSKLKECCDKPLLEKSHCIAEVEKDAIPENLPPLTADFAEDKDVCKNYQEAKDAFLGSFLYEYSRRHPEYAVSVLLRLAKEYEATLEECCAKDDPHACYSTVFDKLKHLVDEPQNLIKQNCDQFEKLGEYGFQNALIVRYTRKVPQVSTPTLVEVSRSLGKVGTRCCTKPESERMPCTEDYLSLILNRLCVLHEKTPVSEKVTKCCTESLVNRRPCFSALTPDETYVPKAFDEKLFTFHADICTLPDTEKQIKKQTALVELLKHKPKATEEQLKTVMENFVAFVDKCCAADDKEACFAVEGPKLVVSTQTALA
In words: ELISA, coated peptide-BSA, Fab. The protocol: as §1, §2

In experiment [3] the target is T3, hu_CXCR2_N-term (1-17)-Trf (human, coupled to carrier protein human transferrin; C-terminal cysteine introduced to enable coupling).
T3 construct: Synthetic linear peptide chemically coupled to the carrier; also called CXCR2_aa1-17_TRF; N-terminal peptide aa1-17, Transferrin-coupled
T3 sequence (P02787 20-698 limits assumed): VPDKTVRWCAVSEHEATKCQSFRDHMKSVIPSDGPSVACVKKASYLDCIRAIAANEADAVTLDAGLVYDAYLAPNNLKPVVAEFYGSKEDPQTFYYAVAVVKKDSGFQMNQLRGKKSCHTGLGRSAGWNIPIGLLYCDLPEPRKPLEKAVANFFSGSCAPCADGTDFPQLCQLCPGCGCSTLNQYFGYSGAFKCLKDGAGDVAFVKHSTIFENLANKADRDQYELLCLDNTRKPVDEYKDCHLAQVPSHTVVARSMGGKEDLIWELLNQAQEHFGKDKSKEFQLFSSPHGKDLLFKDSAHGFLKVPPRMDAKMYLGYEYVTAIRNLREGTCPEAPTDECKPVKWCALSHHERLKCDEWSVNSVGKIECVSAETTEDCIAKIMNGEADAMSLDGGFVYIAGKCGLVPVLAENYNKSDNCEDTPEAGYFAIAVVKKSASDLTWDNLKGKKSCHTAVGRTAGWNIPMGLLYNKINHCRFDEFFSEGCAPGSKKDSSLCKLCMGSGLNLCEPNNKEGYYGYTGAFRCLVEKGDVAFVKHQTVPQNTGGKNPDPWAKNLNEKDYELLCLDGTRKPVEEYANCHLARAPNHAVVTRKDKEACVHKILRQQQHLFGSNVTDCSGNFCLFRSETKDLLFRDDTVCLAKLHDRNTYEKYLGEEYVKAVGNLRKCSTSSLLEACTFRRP
In words: ELISA, coated peptide-TRF, Fab. As to the method:
as §1, §2
On the technique in general: In an ELISA, binding on a coated surface is turned into a signal by an enzyme label.

Experiment [4] addresses T4, human CXCR2 (human, UniProt P25025 1-360).
T4 construct: Expressed on Flp-In CHO cells (FACS, Fab-ZAP, ADCC, CDC) or on bought PathHunter CHO cells (beta-arrestin assay); the construct in the PathHunter cells is not described; also called chemokine receptor CXCR2; CXCR2 CHO Flp-In cells
T4 sequence: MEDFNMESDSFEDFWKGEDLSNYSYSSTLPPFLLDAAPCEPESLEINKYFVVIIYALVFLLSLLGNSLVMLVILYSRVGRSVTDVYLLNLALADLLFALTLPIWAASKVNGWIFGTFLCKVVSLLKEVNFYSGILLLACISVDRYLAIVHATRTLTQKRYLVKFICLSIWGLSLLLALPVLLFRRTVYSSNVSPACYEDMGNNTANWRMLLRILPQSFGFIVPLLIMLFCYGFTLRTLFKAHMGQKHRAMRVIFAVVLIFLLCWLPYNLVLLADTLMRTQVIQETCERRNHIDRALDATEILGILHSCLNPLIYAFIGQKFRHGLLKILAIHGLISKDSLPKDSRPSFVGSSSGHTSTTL
Briefly: FACS, CXCR2 CHO Flp-In cells, Fab. The protocol: (§3) Human CXCR2-expressing Flp-In™ CHO cells were harvested at ˜80% confluence washed once with PBS (Gibco, Cat #14190-094) and detached using Versene (Invitrogen, Cat #15040-033). Subsequently, cells were counted and centrifuged at 250×g for 5 min at 4° C. Afterwards, cells were diluted in Superblock (Thermo Fisher Perbio Science, Cat #37515) to a cell concentration of 2E+05-1E+06/mL and 100 μL/well were transferred to 96-well microtiter plate (Nunc, Cat#163320). Cells were once centrifuged, supernatant discarded and antibodies added at 1 μg/mL (unless stated otherwise), incubated for 1 h at 4° C. and washed twice with FACS buffer (PBS/3% FCS/0.02% NaN3). Binding of anti-CXCR2 antibodies was detected by incubation of Phycoerythrin-conjugated anti-human IgG (Dianova, Cat #109-116-097) for 1 h at 4° C. Samples were subsequently measured using FACS Array (Becton Dickinson).
as §2
(In flow cytometry, cells or beads pass a laser one at a time.)

The target in experiment [5] is T5, N-Terminal Peptide aa1-17 (Transferrin- or BSA-Coupled) (human, also: coupled to carrier protein (BSA or transferrin), site not given here).
T5 peptide: MEDFNMESDSFEDFWKGC
In words: initial screening, Fab; carrier of the peptide not stated.

Experiment [6] has as its target T2, hu_CXCR2_N-term (1-17)-BSA. Briefly: SPR (Biacore), peptide-BSA immobilized, Fab analyte, steady-state fit. The protocol:
(§4) Affinities (KD values) were determined using SPR (Biacore T200, GE Healthcare) using the following setup: The antigens (hu_CXCR2_N-term (1-17)-BSA, or hu_CXCR2_N-term (1-17)-Trf, respectively) were covalently coupled to a CM5 sensor chip using NHS/EDC chemistry. Antigens were diluted in 10 mM Acetate pH4.5 to a concentration of approx. 100 μg/mL. The final immobilization level was approx. 400 RU for the BSA-coupled peptide and 200 RU for the TRF-coupled peptide. HBS-EP pH7 was used as running buffer throughout the experiment at a flow rate of 30 μL/min. Fab fragments were used as samples (monomer portion at least 90% as determined by HP-SEC, Superdex 75 PC3.2/30 (GE Healthcare). Of each sample, a 2n serial dilution row from 31.25-1000 nM was prepared (6 concentrations) and injected, followed by a blank injection, which was later used for double referencing. Association of Fab samples was recorded for 240 s, and dissociation was monitored for 300 s. At the end of each cycle bound (Fab−) sample was removed from the sensor with one 30 s injection of MgCl2 (3M).
(§5) Most of the recorded binding curves deviated from the expected bimolecular binding model (1:1), but the sensorgrams seemed to reach equilibrium towards the late association phase. Therefore, the binding data (report point late association) was fitted to a steady state model. The Req vs. concentration plots/fits followed the assumed one-binding-site model, and the resulting KD were reported. EC50 values determined by ELISA were in the single digit nanomolar range on N-terminal CXCR2 peptides. […] Respective results of selected 6 Fabs are summarized in Table 1 (data of one representative experiments are shown).
(In general: In SPR one partner is held on a chip, and binding of the other changes the refractive index at the surface.)

Experiment [7] has as its target T3, hu_CXCR2_N-term (1-17)-Trf. Briefly: SPR (Biacore), peptide-TRF immobilized, Fab analyte, steady-state fit. As to the method: as §4, §5
Experiment [8] addresses T2, hu_CXCR2_N-term (1-17)-BSA. In words: ELISA, coated peptide-BSA, IgG1. As to the method:
as §1

The target in experiment [9] is T6, N-terminal peptide aa1-48, BSA-coupled (human; bovine, coupled to carrier protein BSA; C-terminal cysteine introduced to enable coupling).
T6 construct: also called CXCR2 aa1-48 BSA
T6 sequence (P02769 25-607 limits assumed): as the sequence (P02769 25-607 limits assumed) above
Briefly: ELISA, coated peptide-BSA, IgG1. As to the method: as §1

Experiment [10] has as its target T7, ECL3 peptide aa273-295, BSA-coupled (human; bovine, coupled to carrier protein BSA; C-terminal cysteine introduced to enable coupling).
T7 construct: also called CXCR2 aa273-295 BSA; peptides representing the extracellular domain 3
Briefly: ELISA, coated peptide-BSA, IgG1. The protocol:
as §1

The target of experiment [11] is T4, human CXCR2. Briefly: FACS, CXCR2 CHO Flp-In cells, IgG1. As to the method:
as §3

Where no end group is shown, it is not given here.

T7 sequence (P02769 25-607 limits assumed): as above

B1: CX2-Mab #3 (Fab format) (Fab, V domains shown)
VH: EVQLLESGGGLVQPGGSLRLSCAASGFTFSSYWMSWVRQAPGKGLEWVSVISYSGSETFYADSVKGRFTISRDNSKNTLYLQMNSLRAEDTAVYYCARGRVGYAFDYWGQGTLVTVSS
VL: DIVLTQPPSVSGAPGQRVTISCSGSSSNIGVNYVNWYQQLPGTAPKLLIYSNNQRPSGVPDRFSGSKSGTSASLAITGLQAEDEADYYCQSRASGFYSVVFGGGTKLTVLG
A word on the EC50: it is the concentration that produces a half-maximal response. Read a high EC50 as a need for much substance. A word on the Kd: it is the equilibrium constant for the complex coming apart. Read a low Kd as higher affinity. With B1, the binding result in experiment [1] was “no binding”. Further, the figures for the concentration giving a half-maximal response (EC50) (in [2]; in [3]; with human CXCR2 [4]) were 4.7 nM, 2 nM and 105 nM, respectively. Also, the signal over background in [5] was ≥ 5 fold. For the same molecule, the equilibrium dissociation constant (Kd) in experiment [6] came out at 393 nM; in experiment [7], 317 nM.

B2: CX2-Mab #3.1 (antibody, IgG1, V domains shown)
VH: QVQLLESGGGLVQPGGSLRLSCAASGFTFSSYWMSWVRQAPGKGLEWVSVISYSGSETFYADSVKGRFTISRDNSKNTLYLQMNSLRAEDTAVYYCARGRVGYAFDYWGQGTLVTVSS
VL: DIVLTQPPSVSGAPGQRVTISCSGSSSNIGVNYVNWYQQLPGTAPKLLIYSNNQRPSGVPDRFSGSKSGTSASLAITGLQAEDEADYYCQTRAVHFARVVFGGGTKLTVLG
Regarding B2, the binding result (in experiment [8]; in [9]; in experiment [10]; with human CXCR2 [11]) was “binds” each time.

B3: CX2-Mab #2 (Fab format) (Fab, V domains shown)
VH: QVQLVQSGAEVKKPGASVKVSCKASGYTFSRYAMHWVRQAPGQGLEWMGVINPYNGNTRYAQKFQGRVTMTRDTSISTAYMELSRLRSEDTAVYYCARGSHIQAGAFDYWGQGTLVTVSS
VL: DIQMTQSPSSLSASVGDRVTITCRASQGINNRLNWYQQKPGKAPKLLIYDGSSLQSGVPSRFSGSGSGTDFTLTISSLQPEDFATYYCQQYIHFPVTFGQGTKVEIKR
Regarding B3, in [1], the binding result is reported as “no binding”. Also, the results for the EC50 (in [2]; in experiment [3]; with human CXCR2 [4]) were 3.6 nM, 1.3 nM and > 6000 nM, respectively. Besides, in [5], the signal over background is ≥ 5 fold. Moreover, the Kd in experiment [6] came out at 221 nM; in experiment [7], 210 nM.

B4: CX2-Mab #1 (Fab format) (Fab, V domains shown)
VH: QVQLVQSGAEVKKPGSSVKVSCKASGGTFSSYAISWVRQAPGQGLEWMGGIIPIVGEAKYAQKFQGRVTITADESTSTAYMELSSLRSEDTAVYYCARDSSGYDGYYAFAYWGQGTQVTVSS
VL: DIVLTQPPSVSGAPGQRGTISCSGSSSNIGSSSVNWYQQLPGTAPKLLIYRNNQRPSGVPDRFSGSKSGTSASLAITGLQAEDEADYYCGATDFSANQVVFGGGTKLTVLG
As for B4, the binding result in experiment [1] is on record as “no binding”. The values for the concentration giving a half-maximal response (EC50) (in experiment [2]; in experiment [3]; with human CXCR2 [4]) were 6.1 nM, 1 nM and 365 nM, respectively. For the same molecule, the signal over background in experiment [5] was ≥ 5 fold. For the same molecule, the Kd in experiment [6] turned out to be 534 nM; in experiment [7], 269 nM.

B5: CX2-Mab #5 (Fab format) (Fab, V domains shown)
VH: EVQLLESGGGLVQPGGSLRLSCAASGFTFNSNAMSWVRQAPGKGLEWVSFISYSGSHTYYADSVKGRFTISRDNSKNTLYLQMNSLRAEDTAVYYCARYTRFLSRPAFDPWGQGTLVTVSS
VL: DIVLTQPPSVSGAPGQRVTISCTGSSSNIGAGYDVHWYQQLPGTAPKLLIYYNSKRPSGVPDRFSGSKSGTSASLAITGLQAEDEADYYCGAYDRKMNSYVFGGGTKLTVLG
Regarding B5, the binding result in [1] is given as “no binding”. The results for the EC50 (in [2]; in experiment [3]; in the experiment with human CXCR2 [4]) were 0.6 nM, 0.5 nM and > 6000 nM, respectively. Besides, the signal over background in experiment [5] was ≥ 5 fold. Besides, the values for the Kd in experiment [6] and in experiment [7] were 146 nM and 149 nM, respectively.

B6: CX2-Mab #4 (Fab format) (Fab, V domains shown)
VH: EVQLLESGGGLVQPGGSLRLSCAASGFTFSSNGMSWVRQAPGKGLEWVSAISSSGSKTYYADSVKGRFTISRDNSKNTLYLQMNSLRAEDTAVYYCARGYGFDVWGQGTLVTVSS
VL: DIVLTQPPSVSGAPGQRVTISCSGSSSNIGVNIVNWYQQLPGTAPKLLIYSTSNRPSGVPDRFSGSKSGTSASLAITGLQAEDEADYYCATRDGISKSVVFGGGTKLTVLG
Consider B6, for which the binding result in experiment [1] is reported as “no binding”. Further, the EC50 is 0.8 nM in experiment [2], 0.4 nM in experiment [3] and 136 nM with human CXCR2 [4]. In experiment [5], the signal over background is ≥ 5 fold. The dissociation constant (Kd) in [6] was 143 nM; in experiment [7] it was 101 nM.

B7: CX2-Mab #6 (Fab format) (Fab, V domains shown)
VH: EVQLLESGGGLVQPGGSLRLSCAASGFTFSSYTMSWVRQAPGKGLEWVSAIHSSGSSTYYADSVKGRFTISRDNSKNTLYLQMNSLRAEDTAVYYCARVPAYYGFDHWGQGTLVTVSS
VL: DIELTQPPSVSVSPGQTASITCSGDSLGAFYVHWYQQKPGQAPVLVIYRTNNRPSGIPERFSGSNSGNTATLTISGTQAEDEADYYCASYASRNRVFGGGTKLTVLG
Regarding B7, the binding result in experiment [1] was “no binding”. Further, the values for the EC50 (in [2]; in experiment [3]; with human CXCR2 [4]) were 1.3 nM, 0.5 nM and 195 nM, respectively. In addition, the signal over background in experiment [5] is ≥ 5 fold. In addition, the results for the equilibrium dissociation constant (Kd) in [6] and in experiment [7] were 353 nM and 251 nM, respectively.
